Source: IntAct's records for PubMed 22363216

Target: arfg1_rat Arfgap1 (UniProt Q62848)
Sequence (Q62848 whole entry): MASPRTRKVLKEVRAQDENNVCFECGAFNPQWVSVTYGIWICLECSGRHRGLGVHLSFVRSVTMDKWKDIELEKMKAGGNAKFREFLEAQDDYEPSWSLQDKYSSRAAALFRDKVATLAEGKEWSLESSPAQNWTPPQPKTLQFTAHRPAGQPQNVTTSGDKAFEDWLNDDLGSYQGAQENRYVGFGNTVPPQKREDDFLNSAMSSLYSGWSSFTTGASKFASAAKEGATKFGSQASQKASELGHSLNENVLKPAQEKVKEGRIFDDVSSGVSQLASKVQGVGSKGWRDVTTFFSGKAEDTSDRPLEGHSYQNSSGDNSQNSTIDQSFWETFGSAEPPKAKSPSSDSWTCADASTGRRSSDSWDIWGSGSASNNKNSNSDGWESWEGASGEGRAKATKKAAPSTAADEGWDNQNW

effect of a mutation on the interaction	Substance
increasing interaction	Leucine-rich repeat serine/threonine-protein kinase 2 (Homo sapiens), Q5S007 Y1699C
increasing interaction	Leucine-rich repeat serine/threonine-protein kinase 2 (Homo sapiens), Q5S007 R1441C
decreasing interaction	Leucine-rich repeat serine/threonine-protein kinase 2 (Homo sapiens), Q5S007 R1398L
increasing interaction	Leucine-rich repeat serine/threonine-protein kinase 2 (Homo sapiens), Q5S007 G2019S
decreasing interaction	Leucine-rich repeat serine/threonine-protein kinase 2 (Homo sapiens), Q5S007 T1348N
